Data from US9493781B2, “Synthetic brassica-derived chloroplast transit peptides” (DOW AGROSCIENCES LLC, priority 2012, dated 2016).

Key:
Arabidopsis [1] = test: dgt-28, dgt-32, dgt-33, dgt-3, dgt-7 transformed Arabidopsis (T1, T2, T3) response to postemergence glyphosate, % visual injury; assay type: in vivo, Arabidopsis thaliana; details: for % Injury Ave / % Injury Range (%) / No. plants with 20-40% injury / No. plants with <20% injury / No. plants with >40% injury: 14 days after application
Text: Transgenic T1 Arabidopsis plants containing the dgt-28 transgene were sprayed with differing rates of glyphosate. Elevated rates were applied in this study to determine the relative levels of resistance (105, 420, 1,680 or 3,360 g ae/ha). A typical 1× usage rate of glyphosate that will control non-transformed Arabidopsis is 420 g ae/ha. […] The T1 Arabidopsis plants that were used in this study were variable copy number for the dgt-28 transgene. The low copy dgt-28 T1 Arabidopsis plants were self-pollinated and used to produce T2 plants.
Results of Glyphosate Selection of Transformed dgt-28 Arabidopsis Plants. The Arabidopsis T1 transformants were first selected from the background of untransformed seed using a glufosinate selection scheme. Three flats or 30,000 seed were analyzed for each T1 construct. The T1 plants selected above were molecularly characterized and representative plants with variable copy number were subsequently transplanted to individual pots and sprayed with various rates of commercial glyphosate as previously described. The response of these plants is presented in terms of % visual injury 2 weeks after treatment (WAT). […] An arithmetic mean and standard deviation is presented for each construct used for Arabidopsis transformation. The range in individual response is also indicated in the last column for each rate and transformation. Wild-type, non-transformed Arabidopsis (c.v. Columbia) served as a glyphosate sensitive control.
T2Arabidopsis Data. The second generation plants (T2) of selected T1 Arabidopsis events which contained low copy numbers of the dgt-28 transgene were further characterized for glyphosate tolerance. Glyphosate was applied as described previously. The response of the plants is presented in terms of % visual injury 2 weeks after treatment (WAT). […] An arithmetic mean and standard deviation are presented for each construct used for Arabidopsis transformation. The range in individual response is also indicated in the last column for each rate and transformation. Wild-type, non-transformed Arabidopsis (cv. Columbia) served as a glyphosate sensitive control. In the T2 generation hemizygous and homozygous plants were available for testing for each event and therefore were included for each rate of glyphosate tested. Hemizygous plants contain two different alleles at a locus as compared to homozygous plants which contain the same two alleles at a locus. Variability of response to glyphosate is expected in the T2 generation as a result of the difference in gene dosage for hemizygous as compared to homozygous plants. The variability in response to glyphosate is reflected in the standard deviation and range of response.
T3 Arabidopsis Data. The third generation plants (T3) of selected T2 Arabidopsis events which contained low copy numbers of the dgt-28 transgene were further characterized for glyphosate tolerance. […] Glyphosate was applied as described previously. The response of the plants is presented in terms of % visual injury 2 weeks after treatment (WAT). […] An arithmetic mean and standard deviation are presented for each construct used for Arabidopsis transformation. The range in individual response is also indicated in the last column for each rate and transformation. Wild-type, non-transformed Arabidopsis (cv. Columbia) served as a glyphosate-sensitive control.

Arabidopsis [2] = test: Heritability progeny test of T1 families (T2 plants) with glufosinate, Arabidopsis; assay type: in vivo, Arabidopsis thaliana; details: progeny test of 100 T2 plants, glufosinate 200 g ae/ha
Text: Heritability. Confirmed transgenic T1 Arabidopsis events were self-pollinated to produce T2 seed. These seed were progeny tested by applying Ignite™ herbicide containing glufosinate (200 g ae/ha) to 100 random T2 siblings. […] The T1 families (T2 plants) segregated in the anticipated 3 Resistant: 1 Sensitive model for a dominantly inherited single locus with Mendelian inheritance as determined by Chi square analysis (P>0.05). […] Seed were collected from 5 to 15 T2 individuals (T3 seed). Twenty-five T3 siblings from each of 3-4 randomly-selected T2 families were progeny tested as previously described.

[3] = Table 8, T1 Arabidopsis, 105 g ae/ha glyphosate
[4] = Table 8, T1 Arabidopsis, 420 g ae/ha glyphosate
[5] = Table 8, T1 Arabidopsis, 1680 g ae/ha glyphosate
[6] = Table 8, T1 Arabidopsis, 3360 g ae/ha glyphosate
[7] = Table 10, T1 Arabidopsis, 1,680 g ae/ha glyphosate
[8] = Table 12, T2 Arabidopsis, 1 copy, 420 g ae/ha glyphosate
[9] = Table 12, T2 Arabidopsis, 1 copy, 840 g ae/ha glyphosate
[10] = Table 12, T2 Arabidopsis, 1 copy, 1680 g ae/ha glyphosate
[11] = Table 12, T2 Arabidopsis, 1 copy, 3360 g ae/ha glyphosate

B1: pDAB105530: TraP5 v2 - dgt-28 v5: binary construct TraP5 v2: dgt-28 v5 (SEQ ID NO:33) (nucleic acid)
DNA: ATGCAACTCCTGAATCAGAGGCAAGCCCTGCGTCTTGGTCGTTCATCTGCTTCAAAGAACCAGCAAGTTGCTCCACTGGCCTCTAGGCCTGCTTCTTCCTTGAGCGTCAGCGCATCCAGCGTCGCACCTGCACCTGCTTGCTCAGCTCCTGCTGGAGCTGGAAGGCGTGCTGTTGTCGTGAGAGCAGCAAGAGGGATGCCAGCCTTGTCTTTACCTGGATCAAAGAGTATCACAGCTAGGGCACTCTTTCTTGCTGCTGCTGCTGATGGGGTTACTACTTTGGTGAGGCCATTGAGAAGTGACGACACAGAAGGATTCGCTGAGGGGTTAGTTCGTTTAGGCTATCGTGTAGGGAGGACACCCGATACTTGGCAAGTCGATGGCAGACCACAAGGACCAGCAGTGGCTGAGGCTGACGTCTACTGTAGAGACGGAGCAACCACCGCTAGATTCTTGCCAACCTTAGCAGCTGCTGGTCACGGAACATACAGATTTGATGCTTCACCACAGATGAGGAGACGTCCTCTTTTGCCCTTAAGCAGAGCCTTGAGGGATTTGGGTGTCGATCTTAGACACGAAGAAGCTGAAGGTCATCACCCTCTGACTGTCCGTGCTGCTGGGGTTGAAGGAGGAGAGGTTACTTTGGATGCTGGTCAGTCAAGTCAGTATCTCACTGCCTTGTTGCTCCTTGGTCCCCTTACAAGACAAGGACTGAGGATAAGGGTTACTGATTTGGTGTCAGCACCATACGTGGAGATTACGCTTGCAATGATGAGGGCTTTCGGAGTTGAAGTGGCAAGGGAGGGAGATGTGTTCGTTGTTCCACCTGGTGGATATCGTGCAACTACGTATGCTATAGAACCCGACGCAAGTACTGCTTCTTACTTCTTCGCAGCTGCTGCTTTGACTCCTGGAGCTGAAGTGACTGTACCTGGGTTAGGCACGGGAGCACTTCAAGGAGATTTGGGATTTGTAGATGTCTTAAGGAGAATGGGAGCCGAGGTGTCCGTAGGAGCTGATGCAACCACTGTTAGAGGAACTGGTGAATTGCGTGGCCTTACAGCCAACATGAGAGACATAAGTGATACGATGCCGACCCTCGCTGCAATAGCACCCTTTGCTAGTGCTCCAGTTAGAATCGAGGATGTTGCCAACACTCGTGTCAAAGAATGTGACAGACTTGAGGCTTGTGCAGAGAACCTTAGGAGGTTGGGAGTAAGGGTTGCAACGGGTCCGGACTGGATTGAGATACACCCTGGTCCAGCTACTGGTGCTCAAGTCACAAGCTATGGTGATCACAGAATTGTGATGTCATTTGCAGTGACTGGACTTCGTGTGCCTGGGATCAGCTTCGACGACCCTGGCTGTGTTCGTAAGACTTTTCCTGGGTTTCACGAGGCTTTCGCAGAATTGAGGCGTGGCATTGGGAGCTGA
modifications: In-frame fusion of dgt-28 v5 and TraP5 v2
Arabidopsis [1]; T2 Arabidopsis, versus dgt-28 constructs with other TraP transit peptides
  Glyphosate tolerance: did not provide robust tolerance to glyphosate
Arabidopsis [1]; [3]
  % Injury Ave: 39.3%
  % Injury Range (%): 8-100%
  No. plants with 20-40% injury: 2
  No. plants with <20% injury: 2
  No. plants with >40% injury: 2
Arabidopsis [1]; [4]
  % Injury Ave: 33.0%
  % Injury Range (%): 8-85%
  No. plants with 20-40% injury: 4
  No. plants with <20% injury: 1
  No. plants with >40% injury: 1
Arabidopsis [1]; [5]
  % Injury Ave: 47.5%
  % Injury Range (%): 25-85%
  No. plants with 20-40% injury: 4
  No. plants with <20% injury: 0
  No. plants with >40% injury: 2
Arabidopsis [1]; [6]
  % Injury Ave: 76.7%
  % Injury Range (%): 50-85%
  No. plants with 20-40% injury: 0
  No. plants with <20% injury: 0
  No. plants with >40% injury: 6
Arabidopsis [1]; [7]
  % Injury Ave: 47.5%
  % Injury Range (%): 25-85%
  No. plants with 20-40% injury: 4
  No. plants with <20% injury: 0
  No. plants with >40% injury: 2
Arabidopsis [1]; [8]
  % Injury Ave: 75.0%
  % Injury Range (%): 50-90%
  No. plants with 20-40% injury: 0
  No. plants with <20% injury: 0
  No. plants with >40% injury: 4
Arabidopsis [1]; [9]
  % Injury Ave: 80.0%
  % Injury Range (%): 50-90%
  No. plants with 20-40% injury: 0
  No. plants with <20% injury: 0
  No. plants with >40% injury: 4
Arabidopsis [1]; [10]
  % Injury Ave: 75.0%
  % Injury Range (%): 60-85%
  No. plants with 20-40% injury: 0
  No. plants with <20% injury: 0
  No. plants with >40% injury: 4
Arabidopsis [1]; [11]
  % Injury Ave: 76.3%
  % Injury Range (%): 70-80%
  No. plants with 20-40% injury: 0
  No. plants with <20% injury: 0
  No. plants with >40% injury: 4
Arabidopsis [2]
  T1 Families Tested Segregating at 1 Locus (%): 100%
